{
  "source": "patent US20200347137A1",
  "binders": {"B1": {"name": "PL004B9 scFv-Fc (Fc fusion, part only; not given: linker and Fc, part only)", "chain, part": "EVQLVESGGGLVQPGGSLRLSCTVSGIDLSVINMGWVRQAPGKGLEWIGTITYVGNTYYASWAKGRFTISKTSTTVDLKITSPTTEDTAVYYCARESGTIYYSYFNLWGQGTLVTVSSGGGGSGGGGSGGGGSGGGGSAFELTQSPSSLSASVGDRVTIKCQASESISNYLSWYQQIPGKVPKLLIYYASNLASGVPSRFSGSGSGTDFTLTISSLQPEDVATYYCQSYYGGGSAYTFGGGTKVEIK"}, "B2": {"name": "PL221G5 scFv-Fc (Fc fusion, part only; not given: linker and Fc, part only)", "chain, part": "EVQLLESGGGLVQPGGSLRLSCAASGFSFSSGYDMCWVRQAPGKGLEWIACIAAGSAGITYDANWAKGRFTISRDNSKNTLYLQMNSLRAEDTAVYYCARSAFSFDYAMDLWGQGTLVTVSSGGGGSGGGGSGGGGSGGGGSDIQMTQSPSTLSASVGDRVTITCQASQSISSHLNWYQQKPGKAPKLLIYKASTLASGVPSRFSGSGSGTEFTLTISSLQPDDFATYYCQQGYSWGNVDNVFGGGTKVEIK"}, "B3": {"name": "PL230C6 scFv-Fc (Fc fusion, part only; not given: linker and Fc, part only)", "chain, part": "QSVEESGGGLVQPGGSLRLSCTASGIDLNTYDMIWVRQAPGKGLEWVGIITYSGSRYYANWAKGRFTISKDNTKNTVYLQMNSLRAEDTAVYYCARDYMSGSHLWGQGTLVTVSSGGGGSGGGGSGGGGSGGGGSAYDMTQSPSSVSASVGDRVTIKCQASEDIYSFLAWYQQKPGKAPKLLIHSASSLASGVPSRFSGSGSGTDFTLTISSLQPEDFATYYCQQGYGKNNVDNAFGGGTKVEIK"}},
  "molecular_target": "PD-L1 recombinant protein (human) (UniProt Q9NZQ7)",
  "sequence (Q9NZQ7 19-238 limits assumed)": "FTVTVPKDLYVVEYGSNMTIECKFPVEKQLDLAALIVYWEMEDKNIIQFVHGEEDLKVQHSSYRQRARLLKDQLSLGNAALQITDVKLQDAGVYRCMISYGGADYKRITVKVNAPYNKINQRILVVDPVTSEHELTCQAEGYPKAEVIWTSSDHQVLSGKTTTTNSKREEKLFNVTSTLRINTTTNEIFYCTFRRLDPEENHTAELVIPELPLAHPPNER",
  "experiment": "ForteBio Octet RED96, PD-L1 immobilised, antibody in solution",
  "data": [
    {"binder": "B1", "values": [
      {"measurement": "Kd", "value": 1.42, "unit": "nM"},
      {"measurement": "koff", "value": 0.00055, "unit": "s⁻¹"},
      {"measurement": "kon", "value": 387000, "unit": "M⁻¹ s⁻¹"}
    ]},
    {"binder": "B2", "values": [
      {"measurement": "Kd", "value": 0.597, "unit": "nM"},
      {"measurement": "koff", "value": 0.000303, "unit": "s⁻¹"},
      {"measurement": "kon", "value": 508000, "unit": "M⁻¹ s⁻¹"}
    ]},
    {"binder": "B3", "values": [
      {"measurement": "Kd", "value": 0.917, "unit": "nM"},
      {"measurement": "koff", "value": 0.000461, "unit": "s⁻¹"},
      {"measurement": "kon", "value": 503000, "unit": "M⁻¹ s⁻¹"}
    ]}
  ]
}
